{"source": "patent US20230303648A1", "about": "(OSE IMMUNOTHERAPEUTICS, published 2023)", "key": {"[1]": {"molecular_target": "T1, recombinant human PD-1 (rPD1; Sino Biologicals, reference 10377-H08H) (human, UniProt Q15116 25-167)", "T1 construct": "bought; also called hPD1; PD-1 receptor", "T1 sequence (Q15116 25-167 limits assumed)": "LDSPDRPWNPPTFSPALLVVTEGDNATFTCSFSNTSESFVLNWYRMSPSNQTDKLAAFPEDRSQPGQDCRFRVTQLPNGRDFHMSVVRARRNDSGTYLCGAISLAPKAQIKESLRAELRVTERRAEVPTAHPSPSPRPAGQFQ", "experiment": "ELISA: PD-1 immobilised, anti-human Fc peroxidase detection", "description": "A. PD-1 binding ELISA assay. Human recombinant PD-1 (rPD1) protein was immobilized, and antibodies were added at different concentrations. Revelation was performed with an anti-human Fc antibody coupled to peroxidase. Colorimetry was determined at 450 nm using TMB substrate. The anti PD-1 with 1 (anti PD-1*1 ▲ grey) or 2 anti PD-1 arms (anti PD-1*2 ◆) were tested as control. […] All constructions tested comprise a […] linker between the Fc and IL-7 domain."}, "[2]": {"molecular_target": "T2, CD127 recombinant protein (Histidine tagged, Sino ref 10975-H08H) (UniProt P16871 21-239)", "T2 construct": "bought; used in the CD127 sandwich ELISA; also called CD127 receptor; IL-7Ralpha; not shown: histidine tag", "T2 sequence (looked up)": "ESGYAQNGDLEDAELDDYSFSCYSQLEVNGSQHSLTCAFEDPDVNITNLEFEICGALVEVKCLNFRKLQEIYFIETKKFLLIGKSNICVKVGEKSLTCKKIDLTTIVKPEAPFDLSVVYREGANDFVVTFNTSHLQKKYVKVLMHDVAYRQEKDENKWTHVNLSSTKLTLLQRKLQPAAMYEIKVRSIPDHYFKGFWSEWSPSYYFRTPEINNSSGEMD", "experiment": "sandwich ELISA, PD-1 immobilised, molecule preincubated with His-tagged CD127, anti-His-biotin + streptavidin-peroxidase, 450 nm", "description": "Colorimetry was determined at 450 nm using TMB substrate. […] C.\nColorimetry was determined at 450 nm using TMB substrate."}, "[3]": {"molecular_target": "T3, biotinylated recombinant human PD-1 (human, UniProt Q15116 25-167, limits assumed, biotinylated (site not stated))", "T3 construct": "used in solution in the PD-1/PD-L1 antagonist ELISA; also called PD-1 receptor", "T3 sequence (Q15116 25-167 limits assumed)": "as the sequence (Q15116 25-167 limits assumed) above", "experiment": "competition ELISA: PD-L1 immobilised (competitor), biotinylated PD-1 at 0.6 µg/mL premixed with the molecule"}, "[4]": {"molecular_target": "T4, CD132 receptor (Sinobiological 10555-H08B) (UniProt P31785 23-254)", "T4 construct": "bought; analyte in the Biacore CD132 assay; also called common gamma chain", "T4 sequence (looked up)": "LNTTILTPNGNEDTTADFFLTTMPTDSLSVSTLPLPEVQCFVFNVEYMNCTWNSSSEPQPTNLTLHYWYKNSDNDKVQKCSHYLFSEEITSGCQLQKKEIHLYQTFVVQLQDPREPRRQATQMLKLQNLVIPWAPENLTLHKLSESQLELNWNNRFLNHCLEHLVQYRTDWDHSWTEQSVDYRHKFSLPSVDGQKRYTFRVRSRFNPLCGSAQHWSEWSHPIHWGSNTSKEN", "experiment": "Biacore, steady-state model: CD127 immobilised, IgG4 alone injected, then CD132 at 31.25-500 nM; baseline of CD127 with CD132 in the absence of IL-7"}}, "data": [{"binder": "anti-PD1*2 (control antibody without any IL7) (antibody, IgG4, V domains shown, two anti PD-1 arms) VH: QIQLVQSGSELKKPGASVKVSCKASGYTFTHYAMNWVRQAPGQGLEWMGWINTNTGEPTYAQGFTGRFVFSLDTSVSTAYLQISSLKAEDTAVYYCAREREPGMDNWGQGTLVTVSS VL: DVVMTQSPLSLPVTLGQPASISCRSSQSLVHANTNTYLEWYQQRPGQSPRLLIYKVSNRFSGVPDRFSGSGSGTDFTLKISRVEAEDVGVYYCFQGTHVPNTFGQGTKLEIKR", "values": [{"measurement": "EC50", "setting": "[1]", "result": 0.021, "unit": "nM"}]}, {"binder": "anti PD-1 W142H bifunctional molecule with an isotype IgG1m + YTE (grey circle; no label printed on the sheet, name taken from legend paragraph 41) (other, also called anti PD-1 IL-7 W142H IgG1m + YTE) heavy: QIQLVQSGSELKKPGASVKVSCKASGYTFTHYAMNWVRQAPGQGLEWMGWINTNTGEPTYAQGFTGRFVFSLDTSVSTAYLQISSLKAEDTAVYYCAREREPGMDNWGQGTLVTVSSASTKGPSVFPLAPSSKSTSGGTAALGCLVKDYFPEPVTVSWNSGALTSGVHTFPAVLQSSGLYSLSSVVTVPSSSLGTQTYICNVNHKPSNTKVDKKVEPKSCDKTHTCPPCPAPELLGGPSVFLFPPKPKDTLYITREPEVTCVVVDVSHEDPEVKFNWYVDGVEVHNAKTKPREEQYASTYRVVSVLTVLHQDWLNGKEYKCKVSNKALPAPIEKTISKAKGQPREPQVYTLPPSRDELTKNQVSLTCLVKGFYPSDIAVEWESNGQPENNYKTTPPVLDSDGSFFLYSKLTVDKSRWQQGNVFSCSVMHEALHNHYTQKSLSLSPGKGGGGSGGGGSGGGGSDCDIEGKDGKQYESVLMVSIDQLLDSMKEIGSNCLNNEFNFFKRHICDANKEGMFLFRAARKLRQFLKMNSTGDFDLHLLKVSEGTTILLNCTGQVKGRKPAALGEAQPTKSLEENKSLKEQKKLNDLCFLKRLLQEIKTCHNKILMGTKEH light: DVVMTQSPLSLPVTLGQPASISCRSSQSLVHANTNTYLEWYQQRPGQSPRLLIYKVSNRFSGVPDRFSGSGSGTDFTLKISRVEAEDVGVYYCFQGTHVPNTFGQGTKLEIKRTVAAPSVFIFPPSDEQLKSGTASVVCLLNNFYPREAKVQWKVDNALQSGNSQESVTEQDSKDSTYSLSSTLTLSKADYEKHKVYACEVTHQGLSSPVTKSFNRGEC", "values": [{"measurement": "EC50 (read off the curve)", "setting": "[2]", "result": "~0.05", "unit": "µg/mL"}]}, {"binder": "anti-PD-1*1 (control construction, one anti PD-1 arm, devoid of IL-7 variant) (antibody, human IgG1, kappa, N297A, one-armed antibody, IgG1 N298A) heavy: QIQLVQSGSELKKPGASVKVSCKASGYTFTHYAMNWVRQAPGQGLEWMGWINTNTGEPTYAQGFTGRFVFSLDTSVSTAYLQISSLKAEDTAVYYCAREREPGMDNWGQGTLVTVSSASTKGPSVFPLAPSSKSTSGGTAALGCLVKDYFPEPVTVSWNSGALTSGVHTFPAVLQSSGLYSLSSVVTVPSSSLGTQTYICNVNHKPSNTKVDKKVEPKSCDKTHTCPPCPAPELLGGPSVFLFPPKPKDTLMISRTPEVTCVVVDVSHEDPEVKFNWYVDGVEVHNAKTKPREEQYASTYRVVSVLTVLHQDWLNGKEYKCKVSNKALPAPIEKTISKAKGQPREPQVYTLPPCRDELTKNQVSLWCLVKGFYPSDIAVEWESNGQPENNYKTTPPVLDSDGSFFLYSKLTVDKSRWQQGNVFSCSVMHEALHNHYTQKSLSLSPGK DKTHTCPPCPAPELLGGPSVFLFPPKPKDTLMISRTPEVTCVVVDVSHEDPEVKFNWYVDGVEVHNAKTKPREEQYASTYRVVSVLTVLHQDWLNGKEYKCKVSNKALPAPIEKTISKAKGQPREPQVYTLPPCRDELTKNQVSLWCLVKGFYPSDIAVEWESNGQPENNYKTTPPVLDSDGSFFLYSKLTVDKSRWQQGNVFSCSVMHEALHNHYTQKSLSLSPGK light: DVVMTQSPLSLPVTLGQPASISCRSSQSLVHANTNTYLEWYQQRPGQSPRLLIYKVSNRFSGVPDRFSGSGSGTDFTLKISRVEAEDVGVYYCFQGTHVPNTFGQGTKLEIKRTVAAPSVFIFPPSDEQLKSGTASVVCLLNNFYPREAKVQWKVDNALQSGNSQESVTEQDSKDSTYSLSSTLTLSKADYEKHKVYACEVTHQGLSSPVTKSFNRGEC", "values": [{"measurement": "EC50", "setting": "[3]", "result": 5.01, "unit": "nM"}, {"measurement": "EC50", "setting": "[1]", "result": 0.238, "unit": "nM"}]}, {"binder": "CD127 (Sinobiological, 10975-H03H-50) (receptor, UniProt P16871 21-239, looked up, bought; immobilised on the CM5 chip in the Biacore assays; also called CD127 receptor) ESGYAQNGDLEDAELDDYSFSCYSQLEVNGSQHSLTCAFEDPDVNITNLEFEICGALVEVKCLNFRKLQEIYFIETKKFLLIGKSNICVKVGEKSLTCKKIDLTTIVKPEAPFDLSVVYREGANDFVVTFNTSHLQKKYVKVLMHDVAYRQEKDENKWTHVNLSSTKLTLLQRKLQPAAMYEIKVRSIPDHYFKGFWSEWSPSYYFRTPEINNSSGEMD", "values": [{"measurement": "Kd", "setting": "[4]", "result": 2500, "unit": "nM"}]}]}
